Square brackets hold non-standard residues; d marks the D form. Peptide text beside a SMILES is read from it. * marks the point of attachment. Dolaproine = CO[C@@H]([C@@H]1CCCN1)[C@@H](C)C(=O)O; Dil = CC[C@H](C)[C@H](NC)[C@@H](CC(=O)O)OC; X1 = C[C@@H](N*)[C@@H](O)c1ccccc1; NMeV = CN[C@H](C(=O)O)C(C)C
Experiments:
[1] = Int J Mol Sci. 21 (9): 3286 (2020); cited from earlier work
[2] = system: hTERT HPNE; assay: Growth inhibitory response to serially diluted MMAE, normal pancreatic cell line; assay type: cell-based; details: serially diluted MMAE (FIG. 10)
[3] = system: HuCCT1, ssp-25, RBE, TFK; assay: MTS growth inhibition, cholagiocarcinoma cells; assay type: cell-based; parameters: dose or concentration left out as unconfirmed; details: four cell lines HuCCT1, ssp-25, RBE, Day 5
Protocol: The growth inhibitory effect of hSD5 scFv on the four strains of cholagiocarcinoma cells was tested under different concentrations. At indicated concentrations, hSD5 scFv interacted with the cancer cells for 5 days, and the effects on the growth of cancer cells were observed by MTS assay. (FIG. 17C)

[4] = biological target: T1, EphA2 (Homo sapiens, UniProt P29317); assay: Flow cytometry binding specificity on 293T cells overexpressing EphA molecules: EphA2; parameters: expressed in transfected cells; host or cells: 293T; details: flow cytometry (FIG. 6A)
T1 sequence (P29317 24-976): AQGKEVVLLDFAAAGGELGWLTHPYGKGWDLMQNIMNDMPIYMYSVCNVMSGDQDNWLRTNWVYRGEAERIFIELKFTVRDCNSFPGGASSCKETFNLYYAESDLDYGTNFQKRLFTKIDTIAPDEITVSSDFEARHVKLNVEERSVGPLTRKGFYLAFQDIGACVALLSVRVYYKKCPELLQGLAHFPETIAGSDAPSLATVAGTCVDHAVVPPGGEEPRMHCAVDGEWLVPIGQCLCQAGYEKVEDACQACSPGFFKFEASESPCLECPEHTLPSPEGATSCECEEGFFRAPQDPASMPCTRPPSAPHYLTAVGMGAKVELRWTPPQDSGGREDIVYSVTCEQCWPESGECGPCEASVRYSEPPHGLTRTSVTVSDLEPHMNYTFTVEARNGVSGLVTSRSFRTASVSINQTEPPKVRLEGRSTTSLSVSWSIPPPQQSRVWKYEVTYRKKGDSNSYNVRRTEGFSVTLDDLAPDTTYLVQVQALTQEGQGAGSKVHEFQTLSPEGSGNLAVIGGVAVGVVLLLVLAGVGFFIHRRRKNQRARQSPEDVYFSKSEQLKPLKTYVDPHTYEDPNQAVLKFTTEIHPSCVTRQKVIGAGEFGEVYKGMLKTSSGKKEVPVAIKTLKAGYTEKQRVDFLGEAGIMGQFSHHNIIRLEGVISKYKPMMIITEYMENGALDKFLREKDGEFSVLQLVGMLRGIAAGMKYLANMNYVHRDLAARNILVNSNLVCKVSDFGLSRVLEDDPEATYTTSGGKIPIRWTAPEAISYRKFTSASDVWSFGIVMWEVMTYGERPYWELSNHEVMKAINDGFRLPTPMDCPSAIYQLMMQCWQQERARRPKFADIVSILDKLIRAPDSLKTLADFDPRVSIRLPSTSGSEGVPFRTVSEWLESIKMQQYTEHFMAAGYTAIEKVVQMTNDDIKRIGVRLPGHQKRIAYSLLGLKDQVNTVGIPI
Protocol: (§1) To detect the binding specificity of scFv, 293T cells were transformed with EphA1-A8 plasmids individually for overexpression of different EphA molecules. The cell line was freshly prepared and washed with FACS buffer (2% FBS in PBS). The cells were seeded at 1×10^5 cells/well into a 96-well Ubottom plate and incubated with scFv for 1 h at 4° C. After the plate was washed with FACS buffer, the anti-hemagglutinin (HA) antibody was added for scFv binding detection (scFv was fused with a HA tag) and subsequently developed using an FITC-conjugated secondary antibody. Finally, the cell binding signal was analyzed using a FACS can flow cytometer.

[5] = system: other Eph family proteins (EphA1-A8); assay: Flow cytometry binding specificity on 293T cells overexpressing EphA molecules: other family proteins; details: cells overexpressing EphA1-A8 (FIG. 6A)
Protocol: as §1

[6] = system: BxPc-3 and Mia PaCa-2 cells; assay: Molecule signaling by Western blotting; assay type: cell-based, human
Protocol: […] The cells were collected and lysed using lysis buffer [50 mM Tris-HCl (pH 7.5), 50 mM NaCl, 5 mM ethylenediaminetetraacetic acid, and 1% Triton X-100], and a mixture of proteinase inhibitors (Roche Applied Science) was added. The protein concentration of the cell lysate was measured through the Coomassie Plus (Bradford) Protein Assay (Thermo Fisher Scientific). Samples were run on reducing SDS-PAGE for Western blotting analysis and were detected using antibodies against p-EphA2, EphA2, p-AKT, AKT, p-ERK, ERK, p-FAK, FAK, pSTAT3, STAT3 (Cell Signaling Technology), and β-actin (GeneTex).

[7] = system: BxPc-3 and Mia PaCa-2; assay: Transwell migration assay (FIG. 5A); assay type: cell-based, human; parameters: dose or concentration left out as unconfirmed; details: scFv for 2 days
Protocol: (§2) PAAD cells were seeded at 5×10^4 cells/well in a 24-well Transwell cell migration plate (Corning) and incubated with scFv for 2 days. In the assay, recombinant ephrin-A1 (Sino Biological) was added as a positive control. After scFv treatment, the cells were fixed with frozen 100% methanol for 10 min and stained with 0.01% crystal violet for 1 h at room temperature. After the pate was washed with ddH2O, the upper-layer cells were removed using cotton swabs. Cell staining was imaged using a microscope and analyzed using ImageJ. For the scratch wound healing assay, PAAD cells were seeded in a 6-well culture plate. The seeded cells in the well were scratched with a pipette tip to simulate a wound. After treatment with scFv and incubation for 36 or 72 h, the cells were imaged using a microscope. The wound areas were analyzed using ImageJ.

[8] = system: BxPc-3; assay: Transwell migration assay, BxPc-3; assay type: cell-based, human; details: BxPc-3, transwell migration assay (FIG. 5B)
Protocol: as §2

[9] = biological target: T1, EphA2; assay: Western blotting under reducing (SDS-PAGE) and non-reducing (Native-PAGE) conditions; assay type: binding; details: Native-PAGE vs SDS-PAGE (FIG. 3D)
Protocol: The recombinant EphA2 protein was transferred onto nitrocellulose membranes (GE Healthcare Life Sciences) after electrophoresis using sodium dodecyl sulfate-polyacrylamide gel (SDS-PAGE) or nativepolyacrylamide gel (Native-PAGE), and the membranes were incubated with using purified scFv antibodies to determine binding reactivity. The membranes were blocked with 5% skim milk and then incubated with scFv at room temperature for 1 h. After washing with PBST, the membranes were detected and developed using HRP-conjugated goat anti-chicken light chain antibodies. Finally, the 3,3′-diaminobenzidine substrate was added for color development until the desired color intensity was reached.

[10] = system: Mia PaCa-2; assay: Scratch wound healing assay, Mia PaCa-2; assay type: cell-based, human; details: Mia PaCa-2, wound healing assay (FIG. 5D)
Protocol: as §2
(§3) For the scratch wound healing assay, PAAD cells were seeded in a 6-well culture plate. The seeded cells in the well were scratched with a pipette tip to simulate a wound. After treatment with scFv and incubation for 36 or 72 h, the cells were imaged using a microscope. The wound areas were analyzed using ImageJ.

[11] = system: Panc-1; assay: MTS cell proliferation assay, Panc-1; assay type: cell-based, human; parameters: dose or concentration left out as unconfirmed; details: Panc-1, MTS, Day 5, scFv
Protocol: (§4) PAAD cell proliferation was measured using a 3-(4,5-dimethylthiazol-2-yl)-5-(3-carboxymethoxyphenyl)-2-(4-sulfophenyl)-2H-tetrazolium (MTS) Cell Proliferation Assay Kit (Promega). The cells were seeded in a 96-well culture plate at a density of 5000 cells/well for attachment. Then, scFv at various concentrations was added to the cell culture and incubated for 5 days. Finally, MTS and phenazine methosulfate solutions were added and incubated for 90 min for development. After the SDS reagent was added to stop the reaction, the absorbance of each well was measured by determining the OD at 490 nm.

[12] = biological target: T2, natural EphA2 molecule in the lysate of 4 pancreatic cancer cell lines (Homo sapiens, UniProt P29317); assay: Immunoprecipitation (pull down) from PAAD cell lysates; assay type: binding; details: lysates of four PAAD cell lines (FIG. 3F)
T2 construct: with endogenous EphA2 molecule expression; endogenous in cells; host or cells: AsPc-1, BxPc-3, Panc-1, Mia PaCa-2
T2 sequence (P29317 24-976): as above
Protocol: For the immunoprecipitation assay, 300 μg of each PAAD cell lysate was incubated with 50 μg of antiEphA2 scFv (scFv was fused with a His tag) at 4° C. overnight. On the next day, 30 μL of Ni^2+-charged sepharose was added to the mixture and incubated for 1 h at 4° C. After three rounds of washing with NiNTA wash buffer (50 mM NaH2PO4, 300 mM NaCl, and 10 mM imidazole, pH 8.0), the scFv-bound sepharose beads were resuspended in 50 μL of PBS buffer. Subsequently, the sepharose solution was denatured at 95° C. for 10 min and analyzed using SDS-PAGE. After the proteins were transferred to a polyvinylidene fluoride membrane, the membrane was detected using the anti-EphA2 antibody (R&D Systems) and anti-His (Proteintech Group) antibody at 4° C. overnight. On the next day, after washing with PBST, the membrane was incubated with HRP-conjugated secondary antibody (Jackson ImmunoResearch Laboratories). Finally, the chemiluminescence substrate was added for luminal signal detection.

[13] = system: Mia PaCa-2; assay: MTS cell proliferation assay, Mia PaCa-2; assay type: cell-based, human; parameters: dose or concentration left out as unconfirmed; details: Mia PaCa-2, MTS, Day 5, scFv
Protocol: as §4

[14] = system: BxPc-3; assay: MTS cell proliferation assay, BxPc-3; assay type: cell-based, human; parameters: dose or concentration left out as unconfirmed; details: BxPc-3, MTS, Day 5, scFv
Protocol: as §4

[15] = system: Panc-1; assay: Transwell migration assay, Panc-1; assay type: cell-based, human; details: Panc-1, transwell migration assay (FIG. 5B)
Protocol: as §2

[16] = system: AsPc-1; assay: MTS cell proliferation assay, AsPc-1; assay type: cell-based, human; parameters: dose or concentration left out as unconfirmed; details: AsPc-1, MTS, Day 5, scFv
Protocol: as §4

[17] = biological target: T3, endogenous EphA2 molecules on 4 pancreatic cancer cell lines (AsPc-1, BxPc-3, Panc-1, Mia PaCa-2) (Homo sapiens, UniProt P29317); assay: Flow cytometry binding on pancreatic cancer cells; details: 4 PAAD cell lines (FIG. 3E)
T3 construct: with endogenous EphA2 molecule expression; endogenous in cells; host or cells: AsPc-1, BxPc-3, Panc-1, Mia PaCa-2
T3 sequence (P29317 24-976): as above
Protocol: Four PAAD cells AsPc-1, BxPc-3, Panc-1, and Mia PaCa-2 with endogenous EphA2 molecule expression, were analyzed through flow cytometry to determine the binding reactivity of indicated scFvs. Freshly prepared cancer cells were harvested and washed twice with PBS. Then, individual scFv was added and incubated at room temperature for 1 h. Bound scFv was visualized using goat anti-chicken light chain antibodies and donkey anti-goat antibodies conjugated with fluorescein isothiocyanate (FITC; Jackson ImmunoResearch Laboratories). An irrelevant scFv was used as the negative control, and commercially available goat anti-EphA2 antibodies were used as the positive control (R&D Systems) in the assay. The results were analyzed using a FACS can flow cytometer (BD Biosciences, Systems and Reagents).

[18] = system: BxPc-3 and Mia PaCa-2; assay: Scratch wound healing assay (FIG. 5C); assay type: cell-based, human; details: after 36 and 72 h of treatment with scFv
Protocol: as §2, §3

[19] = system: BxPc-3; assay: Scratch wound healing assay, BxPc-3; assay type: cell-based, human; details: BxPc-3, wound healing assay (FIG. 5D)
Protocol: as §2, §3

For `CC[C@H](C)[C@@H]([C@@H](CC(=O)N1CCC[C@H]1[C@H](OC)[C@@H](C)C(=O)N[C@H](C)[C@@H](O)c1ccccc1)OC)N(C)C(=O)[C@@H](NC(=O)[C@@H](NC)C(C)C)C(C)C` [MMAE, Monomethyl auristatin E] (H-[NMeV]V[Dil][Dolaproine]-X1), the “potency relative to doxorubicin” value [1] is listed as 100-1000 times and the “growth inhibition of normal pancreatic cell line” value [2] is listed as “only mild effect”.

B1: scFv hSD5: humanized anti-EphA2 scFv, SEQ ID NO: 12 (light chain SEQ ID NO: 8, heavy chain SEQ ID NO: 10) (protein)
scFv: LTQPPSVSVSPGQTVRITCSGSSGSYGWYQQKSPGQAPVTLIYDNDKRPSGIPERFSGSSSGSTSTLTISGVQAEDEADYYCGSADSSTYVGMFGGGTKLTVLGQSSRSSQVQLVESGGGLVQPGGSLRLSCAASGFTFSDYGMGWVRQAPGKGLEWVAGISAAGSFTPYGAAVKGRFTISRDNSKNTVYLQMNSLRAEDTAVYYCARIPSGYRAGEIYTWGQGTLVTVSS
With B1 the growth inhibition [3] was 40%-70%, the “binding to cells overexpressing EphA2” value [4] was “specifically binds to EphA2 molecules” and the “cross-binding to other Eph family proteins” value [5] was “does not exhibit cross-binding reactions”. For the same molecule, the “LAMP1 and LAMP2 levels” value ([6]; 6 h after administration of scFv (FIG. 6C)) was “upregulated levels”, the EphA2 degradation ([6]; 6 h after administration of scFv, dose-dependent (FIG. 6C)) was “degraded EphA2 molecules” and the EphA2 level ([6]; 24 hours treatment (FIG. 6D)) was “almost completely degraded”. The “amount of pEphA2” value ([6]; 24 hours treatment (FIG. 6D)) was “decreased” and the “pSTAT3 and pFAK signals” value ([6]; 24 hours treatment (FIG. 6D)) was “dose-dependent decrease”.

B2: scFv SD5: chicken derived anti-EphA2 scFv, SEQ ID NO: 11 (light chain SEQ ID NO: 7, heavy chain SEQ ID NO: 9) (protein)
scFv: LTQPSSVSANLGETVKIPCSGSSGSYGWYQQKSPGSAPVTLIYDNDKRPSDIPSRFFGSTSGSTSTLTITGVQAEDEAVYFCGSADSSTYVGMFGAGTTLTVLGQSSRSSTVTLDESGGGLQTPGGGLSLVCKASGFTFSDYGMGWVRQAPGKGLEFVAGISAAGSFTPYGAAVKGRATISRDNGQSTVRLQLNNLRSEDTGIYYCARIPSGYRAGEIYTWGQGTEVIVSS
With B2 the “number of migrated cancer cells” value [7] was “reduced effectively”, the migration inhibition [8] was 91% and the “recognition of EphA2 protein in native and denatured form” value [9] was “can recognize EphA2 in the native form, but not in the denatured form”. For the same molecule, the migration inhibitory effect [10] was 65%, the growth inhibition [11] was “approximately 80%” and the “pull down of EphA2 from cell lysates” value [12] was “captured free EphA2 molecules”. The growth inhibition [13] was “approximately 80%”, the growth inhibition [14] was 58.5% and the migration inhibition [15] was 65%. For the same molecule, the growth inhibition [16] was “approximately 80%”, the “binding response to EphA2 molecules on cancer cells” value [17] was “significant binding response” and the “migration of cancer cells in wound healing assay” value [18] was “inhibited the migration of cancer cells”. The migration inhibitory effect [19] was 67%.
